Data from IntAct's records for PubMed 22078559.

B1: Double-strand break repair protein MRE11 (Homo sapiens), P49959 (parent)
chain: MSTADALDDENTFKILVATDIHLGFMEKDAVRGNDTFVTLDEILRLAQENEVDFILLGGDLFHENKPSRKTLHTCLELLRKYCMGDRPVQFEILSDQSVNFGFSKFPWVNYQDGNLNISIPVFSIHGNHDDPTGADALCALDILSCAGFVNHFGRSMSVEKIDISPVLLQKGSTKIALYGLGSIPDERLYRMFVNKKVTMLRPKEDENSWFNLFVIHQNRSKHGSTNFIPEQFLDDFIDLVIWGHEHECKIAPTKNEQQLFYISQPGSSVVTSLSPGEAVKKHVGLLRIKGRKMNMHKIPLHTVRQFFMEDIVLANHPDIFNPDNPKVTQAIQSFCLEKIEEMLENAERERLGNSHQPEKPLVRLRVDYSGGFEPFSVLRFSQKFVDRVANPKDIIHFFRHREQKEKTGEEINFGKLITKPSEGTTLRVEDLVKQYFQTAEKNVQLSLLTERGMGEAVQEFVDKEEKDAIEELVKYQLEKTQRFLKERHIDALEDKIDEEVRRFRETRQKNTNEEDDEVREAMTRARALRSQSEESASAFSADDLMSIDLAEQMANDSDDSISAATNKGRGRGRGRRGGRGQNSASRGGSQRGRADTGLETSTRSRNSKTAVSASRNMSIIDAFKSTRQQPSRNVTTKNYSEVIEVDESDVEEDIFPTTSKTDQRWSSTSSSKIMSQSQVSKGVDFESSEDDDDDPFMNTSSLRRNRR

Variants of: B1
Settings: with nbn_human NBN

Variant | effect of a mutation on the interaction
D86L | decreasing interaction
N117L | disrupting interaction
S104C | decreasing interaction
R80A | disrupting interaction
P121G | disrupting interaction

Second part, the variant after the results:

effect of a mutation on the interaction | Variant
decreasing interaction | C146A
disrupting interaction | R202G
